# Laboratory results as given in patent US10398755B2, “Clusterin pharmaceuticals and treatment methods using the same” (UNIVERSITY OF SOUTHERN CALIFORNIA, priority 2009, dated 2019).
# Assays:
# [1] = target: T1, pro-MMP-9, MMP-9, MMP-9-ΔC (Mus musculus, UniProt P41245); assay: In vitro protein binding assay (CLU-His pull-down, gelatin zymography), MMP-9 forms
# T1 construct: mixture of 30-100 ng of pro-MMP-9, MMP-9, and MMP-9-ΔC; pro-MMP-9, propeptide-cleaved MMP-9 (MMP-9), and MMP-9 with both propeptide and C-terminal region cleaved (MMP-9-ΔC); MMP-9 with both propeptide and C-terminal region cleaved (MMP-9-ΔC); purchased R&D Systems; host or cells: mouse myeloma cell line (NSO)
# T1 sequence (P41245 20-730, stated change not applied): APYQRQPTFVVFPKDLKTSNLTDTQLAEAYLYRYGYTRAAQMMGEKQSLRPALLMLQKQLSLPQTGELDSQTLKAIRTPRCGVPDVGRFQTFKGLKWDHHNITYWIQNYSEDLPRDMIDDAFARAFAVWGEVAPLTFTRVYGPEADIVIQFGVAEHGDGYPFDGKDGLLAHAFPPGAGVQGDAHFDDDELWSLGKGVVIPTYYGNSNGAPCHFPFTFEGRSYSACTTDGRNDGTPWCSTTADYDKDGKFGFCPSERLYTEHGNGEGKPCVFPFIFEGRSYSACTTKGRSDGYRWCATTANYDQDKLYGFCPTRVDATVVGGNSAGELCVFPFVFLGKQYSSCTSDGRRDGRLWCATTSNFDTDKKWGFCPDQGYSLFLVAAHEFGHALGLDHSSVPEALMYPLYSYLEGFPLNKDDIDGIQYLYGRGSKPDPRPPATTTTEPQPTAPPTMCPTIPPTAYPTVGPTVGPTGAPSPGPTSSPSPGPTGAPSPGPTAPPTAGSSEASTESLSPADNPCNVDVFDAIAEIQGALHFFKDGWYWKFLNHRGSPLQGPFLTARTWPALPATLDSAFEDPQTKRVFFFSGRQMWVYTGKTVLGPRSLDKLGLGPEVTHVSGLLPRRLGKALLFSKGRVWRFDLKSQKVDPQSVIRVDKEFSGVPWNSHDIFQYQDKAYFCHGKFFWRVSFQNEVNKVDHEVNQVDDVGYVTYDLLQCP
# Protocol: (§1) (A) Recombinant proteins, Pro-MMP-9, MMP-9, MMP-9-ΔC, CLU-His were incubated together, and bound to agarose beads coupled or uncoupled with Anti-(His)6 antibody in two different binding buffers containing Brij 35 concentrations, 0.04% or 0.002%. MMPs bound to the beads were obtained by washing with the corresponding binding buffer to resolve on gelatin zymography. Three different volumes of each sample were loaded to compare the relative density. (B) Pro-MMP-9 bound to CLU coupled to agarose beads, prepared as in (A), was incubated in the presence or absence of APMA for 1 h at RT, prior to separation of beads (B) and supernatant (S) fractions, which were resolved by zymography. Arrow indicates MMP-9 processed by APMA.
# (§2) A mixture of MMP-2, MMP-9, and C-terminal truncated MMP-9 (9-ΔC) was incubated with His-tagged CLU, used in a pull-down assay and resolved on a gelatin zymography gel. The input and bound samples were loaded in a series of dilution.
# (§3) To make various processed forms of MMPs, pro-MMPs were incubated with 1 mM APMA in TSCB buffer at 37° C. for 4 h to make C-terminal truncated processed MMP-9 (MMP-9-ΔC) [Murphy, 1995]. CLU-His (2.5 μg) was incubated with mixture of 30-100 ng of pro-MMP-9, MMP-9, and MMP-9-ΔC, in the TSCB buffer with 0.002 or 0.04% Brij 35 for 1 h at 4° C. followed by additional incubation for 1.5 h with anti-His tag antibody-conjugated agarose beads. The beads were washed three times with the binding buffer, and dissolved in 1×SDS sample loading buffer. Relative amounts of bound MMPs were assessed on the gelatin zymography. In order to perform CLU binding domain analysis, pro-MMP-9 bound to CLU-coupled beads was prepared, as described above, and then divided into two aliquots. They were incubated with and without 1 mM APMA at RT for 1 h in TSCB buffer on the rotator. The beads (B) were spun down and solution (S) was separated. The beads were washed with TSCB and resuspended in SDS sample loading buffer. Equivalent volume of S and B fraction were subjected to gelatin zymography.
# (§4) Next, we tested the interaction of secreted CLU using mouse recombinant proteins. We used purified recombinant proteins of MMP-2, MMP-9, and CLU that were secreted from a mouse myeloma cell line (NSO). All of the proteins were purchased from R&D Systems. A mixture of MMP-2, MMP-9, and C-terminal truncated MMP-9 (9-ΔC) was incubated with His-tagged CLU, and subjected to the pull-down assay, using 150 mM NaCl-containing binding buffer and anti-His tag antibody resins. Portions of the input samples (Input) and proteins bound to the antibody (Bound) were resolved on the gelatin zymography gel.
# (§5) The recombinant CLU contains a (His)6-Tag at the C-terminus of the protein, which was used for pull-down experiments with anti-His tag antibody beads. It was previously reported that CLU also binds to MT6-MMP/mmp-25 and that the hemopexin domain in the MMP C-terminal region is required for their interaction (Matsuda et al., 2003). To use as an internal control for the binding experiment, we removed part of MMP-9 (MMP-9-ΔC) by promoting self-processing by APMA (4-aminophenylmercuric acetate) treatment. For the in vitro binding assay we mixed MMP-2, MMP-9, and MMP-9-ΔC (FIG. 7).
# (§6) Since different detergent concentrations affected the extent of inhibition of MMP-9 activity by CLU, we tested whether detergents may influence the binding affinity of CLU for MMP-9. To test this possibility, CLU pull down assay was performed. […]
# [2] = tested on: pro-MMP-9, MMP-9, MMP-9-ΔC; assay: as above; parameters: species or system mouse
# Protocol: as §1, §2, §3, §4, §5, §6
molecule,measurement,setting,value
"CLU: secreted disulfide-linked heterodimeric glycoprotein (70-80 KD); assays used recombinant mouse CLU with C-terminal (His)6 (protein, UniProt Q06890 22-448, looked up, C-terminal His6 tag) Clusterin: EQEVSDNELQELSTQGSRYINKEIQNAVQGVKHIKTLIEKTNAERKSLLNSLEEAKKKKEDALEDTRDSEMKLKAFPEVCNETMMALWEECKPCLKHTCMKFYARVCRSGSGLVGQQLEEFLNQSSPFYFWMNGDRIDSLLESDRQQSQVLDAMQDSFARASGIIDTLFQDRFFARELHDPHYFSPIGFPHKRPHFLYPKSRLVRSLMSPSHYGPPSFHNMFQPFFEMIHQAQQAMDVQLHSPAFQFPDVDFLREGEDDRTVCKEIRRNSTGCLKMKGQCEKCQEILSVDCSTNNPAQANLRQELNDSLQVAERLTEQYKELLQSFQSKMLNTSSLLEQLNDQFNWVSQLANLTQGEDKYYLRVSTVTTHSSDSEVPSRVTEVVVKLFDSDPITVVLPEEVSKDNPKFMDTVAEKALQEYRRKSRAE",sensitivity of pro-MMP-9 affinity for CLU to detergent concentration,[1]; 0.002% vs 0.04% Brij 35,not sensitive to the detergent concentration
same,affinity of pro-MMP-9 for CLU relative to the other forms of MMP-9,"[1]; band densities, Image J",at least 10 times
same,binding of MMP-9 and MMP-9-ΔC to CLU at high detergent,[2]; 0.04% Brij 35,do not bind to CLU at the high Brij 35 concentration
same,binding of C-terminal truncated MMP-9 to His-tagged CLU,[2]; 150 mM NaCl binding buffer,did not
same,binding of MMP-9 to His-tagged CLU (bound vs input),[2]; 150 mM NaCl binding buffer,highly enriched in the bound sample
